Our source for the MFI and C1q Dynal FACS MFI values is article PMC10526015.

ADI-26906 IgG1 LALE-D265A (L234A/L235E/D265A) (human), sequence (heavy, as listed by the source, chain 1 of 2): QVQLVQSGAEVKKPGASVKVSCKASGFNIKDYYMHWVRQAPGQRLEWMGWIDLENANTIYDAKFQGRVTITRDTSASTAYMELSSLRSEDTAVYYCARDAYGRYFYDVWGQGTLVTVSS
ADI-26906 IgG1 LALE-D265A (L234A/L235E/D265A) (human), sequence (light, as listed by the source, chain 2 of 2): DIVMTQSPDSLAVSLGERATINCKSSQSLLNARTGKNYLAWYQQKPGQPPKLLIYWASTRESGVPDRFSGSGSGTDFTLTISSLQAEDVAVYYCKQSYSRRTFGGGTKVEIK
ADI-26906 IgG1 LALA-D265A (L234A/L235A/D265A) (human), sequence (heavy, as listed by the source, chain 1 of 2): as the sequence (heavy, as listed by the source, chain 1 of 2) above
ADI-26906 IgG1 LALA-D265A (L234A/L235A/D265A) (human), sequence (light, as listed by the source, chain 2 of 2): as the sequence (light, as listed by the source, chain 2 of 2) above

In the first test the target is FcγR on THP-1 cells (FcγRI and FcγRII). Kind of test: flow cytometry on cells; THP-1 cells, 100 nM uncomplexed IgG, 30 min on ice, PBSF; goat anti-human IgG R-PE; median fluorescence intensity.
With ADI-26906 IgG1 L234A/G237A (antibody), the MFI is 184 MFI.

Turning to ADI-26906 IgG1 L234A/L235A (antibody), the MFI was found to be 491 MFI.

In turn, “ADI-26906 IgG1 L234A/L235A/G237A (antibody)” yielded an MFI of 150 MFI.

Consider ADI-26906 IgG1 L234A/L235E (antibody), for which the MFI was found to be 192 MFI.

ADI-26906 IgG1 L234F/L235E (antibody) came in with an MFI of 369 MFI.

Regarding ADI-26906 IgG1 L234E/L235K (antibody), the MFI came to 176 MFI.

In turn, ADI-26906 IgG1 L234A/L235K (antibody) displayed an MFI of 140 MFI.

ADI-26906 IgG1 L234F/L235K (antibody) registered an MFI of 386 MFI.

ADI-26906 IgG1 L235A/G237A (antibody) registered an MFI of 192 MFI.

The next test shares this target. Described as above. This is another data set of the same source.
Regarding ADI-26906 IgG1 L234A/L235A (antibody), the MFI is 270 MFI.

Regarding ADI-26906 IgG1 L234A/L235E (antibody), the MFI is 127 MFI.

For another test the target is unchanged. Put plainly: flow cytometry on cells; THP-1 cells; ~100 nM IgG pre-complexed with 10 nM CD3ε-BSA (CD3ε peptide 21–47 on BSA) 20 min RT, highly avid; 30 min on ice; goat anti-human IgG PE; median fluorescence intensity.
The substance “ADI-26906 IgG1 LALA-Y296F (L234A/L235A/Y296F) (antibody)” yielded an MFI of 3810 MFI.

“ADI-26906 IgG1 LALA-L309V (L234A/L235A/L309V) (antibody)” returned an MFI of 4850 MFI.

In turn, “ADI-26906 IgG1 LALE-P331S (L234A/L235E/P331S) (antibody)” showed an MFI of 1760 MFI.

For the substance “ADI-26906 IgG1 LALE-H268Q (L234A/L235E/H268Q) (antibody)”, the MFI was 4000 MFI.

“ADI-26906 IgG1 LALA-L328A (L234A/L235A/L328A) (antibody)” yielded an MFI of 6420 MFI.

“ADI-26906 IgG1 LALE-L309A (L234A/L235E/L309A) (antibody)”: the MFI came out at 2760 MFI.

As for ADI-26906 IgG1 L234A/L235A (antibody), the MFI worked out at 5270 MFI.

In turn, “ADI-26906 IgG1 LALE-K322A (L234A/L235E/K322A) (antibody)” displayed an MFI of 2320 MFI.

Substance ADI-26906 IgG1 L234A/L235E (antibody) had an MFI of 5300 MFI.

Take “ADI-26906 IgG1 LALA-A330S (L234A/L235A/A330S) (antibody)”: the MFI was 4440 MFI.

Turning to “ADI-26906 IgG1 LALE-L309V (L234A/L235E/L309V) (antibody)”, the MFI stood at 3540 MFI.

Take “ADI-26906 IgG1 LALE-A330S (L234A/L235E/A330S) (antibody)”: the MFI was found to be 2260 MFI.

Substance “ADI-26906 IgG1 LALA-L309A (L234A/L235A/L309A) (antibody)” gave an MFI of 4790 MFI.

“ADI-26906 IgG1 LALE-A330S/P331S (L234A/L235E/A330S/P331S) (antibody)” gave an MFI of 1390 MFI.

In turn, “ADI-26906 IgG1 LALA-A330S/P331S (L234A/L235A/A330S/P331S) (antibody)” showed an MFI of 3840 MFI.

For the substance “ADI-26906 IgG1 LALA-A327G (L234A/L235A/A327G) (antibody)”, the MFI is 7010 MFI.

For the substance “ADI-26906 IgG1 LALE-L328A (L234A/L235E/L328A) (antibody)”, the MFI was 7040 MFI.

In the case of “ADI-26906 IgG1 LALA-D270A (L234A/L235A/D270A) (antibody)”, the MFI is 2270 MFI.

In turn, “ADI-26906 IgG1 LALA-P331S (L234A/L235A/P331S) (antibody)” returned an MFI of 4220 MFI.

For “ADI-26906 IgG1 LALA-H268Q (L234A/L235A/H268Q) (antibody)”, the MFI came out at 4800 MFI.

Regarding “ADI-26906 IgG1 LALA-K322A (L234A/L235A/K322A) (antibody)”, the MFI was found to be 4390 MFI.

“ADI-26906 IgG1 LALE-D270A (L234A/L235E/D270A) (antibody)” registered an MFI of 546 MFI.

The next test concerns the target ADI-26906 IgG1 LALA-D265A (L234A/L235A/D265A) (human). Put plainly: bead-based flow cytometry (Dynal bead assay); biotinylated CD3ε peptide on streptavidin Dyna Beads, saturated with antibody; beads incubated with C1q alone or with C1q and human complement C3, 25 min RT, PBSF; anti-C1q APC and anti-C3 PE.
Take human complement C1q (complex): the C1q Dynal FACS MFI is 1950 MFI.

Another test addresses ADI-26906 IgG1 LALE-D265A (L234A/L235E/D265A) (human). The test is described as above.
With human complement C1q (complex), the C1q Dynal FACS MFI came to 2280 MFI.
